Measured values from the supplement of paper PMC9170038.

System: K4 kissing-loop RNA reporter
Assay: apparent KD of K4 kissing-loop reporter; higher = weaker reporter binding
Conditions: Eterna round: R107
Protocol: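 RNA-MaP round R107: designed RNA switches with theophylline, tryptophan, arginine or FMN aptamers are transcribed on-chip within common flanks. They are titrated with a labelled K4 kissing-loop RNA reporter in RNA-MaP buffer (100 mM Tris pH 7.5, 80 mM KCl, 4 mM MgCl2), without ligand or with the indicated ligand. Median apparent KD per design.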

[1] = input ligand: theophylline 20 uM
[2] = input ligand: tryptophan 2.4 mM
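Note: bound reporter read as fluorescence of individual clusters on recovered sequencing chips by microscopy, with normalized cluster intensities fitted with a binding model.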

Row | Sequence | apparent KD of K4 kissing-loop reporter (input ligand: FMN 200 uM) [nM] | apparent KD of K4 kissing-loop reporter (input ligand: arginine 13.2 mM) [nM] | apparent KD of K4 kissing-loop reporter (input ligand: none) [nM] | apparent KD of K4 kissing-loop reporter [1] [nM] | apparent KD of K4 kissing-loop reporter [2] [nM]
1 | AAACAUCACUGGGAGUGAUGUUCUCAGUGACGAGGACCGGUACGGCCGCCACUCGCGAGAGAACUAGUCUAGACUUGACUGCAUU [Excl Tryptophan A V14] | 386 | 366 | 356 | 425 | 428
2 | AAACAUCACUGGGAGUGAUGUUCUCAGUGACGAGGACCGGUACGGCCGCCACUCGCGAGAGAUAUAAUUAAGUAAUGACUUCAUU [Excl Tryptophan A V7] | 241 | 205 | 231 | 246 | 287
3 | AAACAUCACUGGGAGUGAUGUUCUCAGUGACGAGGACCGGUACGGCCGCCACUCGCGAGAGAUAUAGUCUAGUAUUGACUGCAUU [Excl Tryptophan A V11] | 242 | 244 | 231 | 339 | 348
4 | AAACAUUGGUCGGAUACCAGCUUGAUCGGAAACGAUCUGCUGGAGUGAUGUUCCAAGUAAAGCCCUUGGCAGCCGACCGAUGAAA [MAT - Same State Theophlline B - Mod of Eli - D17] | 133 | 62.8 | 55.6 | 143 | 74.5
5 | AAACAUUGGUCUGAUACCAGCUUGAUCGGAAAACGAUCUGCUGGAGUGAUGUUCCAAUAAAGCCCUUGGCAGCAGACCGAUGAAA [MAT - Same State Theophlline B - Mod of Eli - D13] | 823 | 444 | 818 | 684 | 722
6 | AAACAUUGGUCUGAUACCAGCUUGAUCGGAAACGAUCUGCUGGAGUGAUGUUCCAAGUAAAGCCCUUGGCAGCAGACCGAUGAAA [MAT - Same State Theophlline B - Mod of Eli - D16] | 121 | 69.6 | 149 | 192 | 115
7 | AAACAUUGGUGCGAUACCAGCUGAUCGGAAACGAUCUUGCUGGAGUGAUGUUCCAAGUAAAGCCCUUGGCAGCGCACCGAUGAAA [MAT - Same State Theophlline B - Mod of Eli - D21] | 135 | 31.7 | 91.5 | 72 | 75.7
8 | AAAGCUCUAUAGAGCAAGAGGUCAACUGAUACCAGAGGCUAUAGCCUCCCUUGGCAGCGGAACGAGUGAUGUUCGAGACCUCAAA [AK6.1 SS Theophylline A] | 1410 | 1120 | 1610 | 939 | 1130
9 | AAAGCUUGGAUGGACGUUAGCGACGGAGAAGGAGCGCACGGAAGUGCAGGUAGGUCGCUCCGAGUGAUGUUCGUGAGUGAUUGCU [Ditienti] | 229 | 329 | 385 | 252 | 301
10 | AAAGGCAAAGCCCGAGUGAUGUUCGACGAUACCAGCCUCGAUAGAGGCCCUUGGCAGCGUAAAUGAUCACAAAGCCAAGGAAUAA [#OpenEnded 2 #StaticStem] | 310 | 244 | 268 | 248 | 261
11 | AAAGGUUGAAGUGAUACCAGACUAGCAGUGAUGUUGCGCCAAAGUGAGUGAUGUUCACCAGUCCCUUGGCAGCACAUGCCUAAAG [Same State Theophylline B GF 13] | 985 | 890 | 1210 | 1310 | 811
12 | AAAGUUGAAAGUGAUACCAGACGAGUGAAGGGAAGAAAUUAAUUUGGAGUGAUGUUCCGCGUCCCUUGGCAGCACUUUGUAAUUU [Exclusion Theophylline B GF 23] | 123 | 150 | 142 | 174 | 107
13 | AAAGUUGAUGAGUUGGGUAUGUGUUCCGAAGGAGCGAGAUUUAUCUCAGGUAGGUCGCGGAACUUGAGUGAUGUUCAUGUAUAAA [KL-XArg-A9 #analogue] | 356 | 408 | 491 | 637 | 305
14 | AAAUAAAGCAGUCACCCAGUGAUGUUGGAAGGAGCGUGCGAAAGCACAGGUAGGUCGCCAAAAUAAAAGUGGCUGCGGCAAAGCC [#SwitchBubble 24 #K4Early] | 627 | 283 | 492 | 338 | 222
15 | AAAUAGAUCAGUCAACCAGUGAUGUUGGAAGGAGCGUGCGAAAGCACAGGUAGGUCGCCAGAAUAAAAUUGGCUGAUCAAAAUAA | 328 | 338 | 333 | 408 | 185
16 | AAAUAGGAGUAAAUAAACAAUUUCCUUAGAGAGGAUAUUGGUAAUACAAGAAGGCUCUGUUGGGAGUGAUGUUCCCAUAACGCCU [Exclusion FMN A GF13] | 58.3 | 66.6 | 56.6 | 65.9 | 56.7
17 | AAAUAUAGUGAUGUUAUAUAUAUAUGUGAUACCAGAGAAAAGAAACUCCCUUGGCAGCACGAGAGAGAAUUUUUUUUUUAUAUAU [AstrosSSTheA#2] | 370 | 409 | 498 | 471 | 328
18 | AAAUCGUUCAGAAGGAGCGUGGAUUAUUCUUAUAUAUUUAUUACGAGUGAUGUUCGUAAUUCACAGGUAGGUCGCUGAUCGAUAA [JR_ExcArginiB_Sub004] | 106 | 126 | 112 | 130 | 108
19 | AAAUGAAGGGCUCGCAGUGAUGUUGCGAGACGAGGACCGGUACGGCCGCCACUCGGCCGCUACUUUGACUCGGGCUUUAAGCUAC [Usarusteer] | 148 | 139 | 145 | 140 | 138
20 | AAAUGUAUCUGAAGGAGCGUGAAAUAAUAUUAGACAUAAUAGCCCAGUGAUGUUGGGUUAUCACAGGUAGGUCGCAGAUGUAUAA [Same State Arginie B GF 26] | 112 | 108 | 105 | 125 | 106
21 | AAAUUUAAUAUAUUUAAAUAAAUAUGUGAUACCAGACAUUUAUAAGUCCCUUGGCAGCACAUUGCAGUGAUGUUGCUUAUAAUAA [JR_SSTheophyA_Sub016] | 72.7 | 80.9 | 89.7 | 145 | 76.5

Row | Sequence | apparent KD of K4 kissing-loop reporter (input ligand: FMN 200 uM) [nM] | apparent KD of K4 kissing-loop reporter (input ligand: arginine 13.2 mM) [nM] | apparent KD of K4 kissing-loop reporter (input ligand: none) [nM] | apparent KD of K4 kissing-loop reporter [1] [nM] | apparent KD of K4 kissing-loop reporter [2] [nM]
22 | AAAUUUAAUAUAUUUAAUUAAUUAUGUGAUACCAGACAUUUAUAAGUCCCUUGGCAGCACAAUGCAGUGAUGUUGCAUAUAAUAA [JR_SSTheophyA_Sub012] | 64.3 | 103 | 82.1 | 77.5 | 67.5
23 | AAAUUUAUAUUAGAUACCAGUAUUUUGAAUGUUUAUUAUGACAAGAGUGAUGUUCUUGUAUGCCCUUGGCAGCUGGUAUGGGUUU [KL-XTheo-B23] | 116 | 111 | 111 | 113 | 115
24 | AAAUUUGCCACUGAUACCAGCCAGUGAUGUUGGCGGUAGUUCUAUGGUACCAUACAUUGUGGCCCUUGGCAGCAGGGCACAGAGC [Raxeisra] | 115 | 99.8 | 92.7 | 115 | 113
25 | AACACUCAACGGAGUGAUGUUCUGGAAAACCGAGGACCGGUACGGCCGCCACUCGGAAAUGAGUGAGUCCUACGAAAAGUAGGAC [Omei inspired 2] | 160 | 161 | 150 | 157 | 125
26 | AACCAGCUUACUGUAAGCUGGUUGCUGGAUACCAGCUCGGAAACGAGCCCUUGGCAGCCAGAACUUGCAGUGAUGUUGCAAGUAA [Design11] | 150 | 178 | 157 | 120 | 216
27 | AACCUGACGACGAGUGAUGUUCGAUGGGAAGGAGCGCGAAGAAAUGCAGGUAGGUCGCCCUAAGAGAGUGUAACGUCAGGAUUAU [1.)] | 364 | 303 | 286 | 348 | 191
28 | AACGCCACCGCGGAUACCAGAGCCAGUGAUGUUGGAUCUGGAAAUUCGUGGGUAAGCUGGCUCCCUUGGCAGCUGCGGUUCUUUU [Tiisaron] | 134 | 112 | 114 | 131 | 109
29 | AACGGCCAGUCGGCCGCCACUCCAAGCAGUGAUGUUGCUAAGUUUCUAAAAGAGUGAUGUUCUUAGAGGACCGGGACUGAUGUAA [Exclusion Tryptophan B Gf 6] | 130 | 155 | 154 | 161 | 104
30 | AACGUUUUGUGAAGGAGCGCGAAAAGCAGUGAUGUUGCUUACUUACAAUUUAGAUUUAACACGCAGGUAGGUCGCACAAUACGUA [JR_SSArginiB_Sub016] | 252 | 225 | 266 | 259 | 219
31 | AACGUUUUGUGAAGGAGCGCGAUAAGCAGUGAUGUUGCUUACUAUCAAUUUAUAUUUUACACGCAGGUAGGUCGCACAAUACGUA [JR_SSArginiB_Sub018] | 159 | 135 | 160 | 148 | 163
32 | AACUGGGUUCGUGAUACCAGCUCACACAUGAGUGAUGUUCAUGUAGUGGGUAAAAUGUGGAGCCCUUGGCAGCACUGUGACCACG [XTheo-B1] | 91.5 | 76.4 | 81.2 | 67.5 | 81.3
33 | AACUGUCAAGGACAACAUUACUGAAGUGAUACCAGCAUCGAAAGAUGCCCUUGGCAGCACUAACUUGCAGUGAUGUUGCAAGUAA [BrourdMod 3 - Jieux - Exclusion - Theophylline A] | 207 | 165 | 184 | 202 | 190
34 | AACUGUCAAGGACAACAUUACUGGAGUGAUACCAGCAUCGAAAGAUGCCCUUGGCAGCACUAACUUGCAGUGAUGUUGCAAGUAA [BrourdMod 6 - Jieux - Exclusion - Theophylline A] | 208 | 174 | 196 | 192 | 191
35 | AACUUUUAAUGAAUUACAUUUUAUUUAUCUCGAGGACCGGUACGGCCGCCACUCGUACUAUAGUGAUGUUAUAGAUAAGUCCUAA [JR_ExcTryptoA_Sub019] | 149 | 212 | 179 | 233 | 73.8
36 | AACUUUUAAUGAAUUACAUUUUAUUUUUCUCGAGGACCGGUACGGCCGCCACUCGUACUAUAGUGAUGUUAUAGAUAAGUCCUAA [JR_ExcTryptoA_Sub020] | 124 | 182 | 142 | 179 | 68.7
37 | AAGAAGAAUGGAAGGAGCGAGCAGAUAUAACCAGUGAUGUUGGAAAGCCUUAUUGCUUAAGCUCAGGUAGGUCGCCAAGAAGAGA [whbob_Ex_Arginine_B_2t152] | 179 | 159 | 179 | 192 | 184
38 | AAGAAGGUCAAAGACCUUCGUGCACGUGAUACCAGUCGCGAAAGCGACCCUUGGCAGCACGGCAGUGAUGUUGCCAAGUGCACAA [#12 K4 Theophylline A Same State] | 407 | 249 | 498 | 664 | 545
39 | AAGAGCUAGGCGGCCGCCACUAGAUGUGAACACAUACAAGCCAGUGAUGUUGGUAUGAUGGACAGUAGGACCGGGCCUAGCUGAA [Exclusion - Tryptophan B (Freestyle 9)] | 353 | 377 | 407 | 368 | 421
40 | AAGAGCUAGGCGGCCGCCACUAGAUGUGAACACAUACAAGCCAGUGAUGUUGGUAUGAUGGACGGUAGGACCGGGCCUAGCUGAA [Exclusion - Tryptophan B (Freestyle 12)] | 290 | 464 | 394 | 381 | 294
41 | AAGAGGACCAACAUCACUAGUCCUCGAAUACGAGGACCGGUACGGCCGCCACUCGAUAACUUGCAGUGAUGUUGCAAGUAAGAAU [(T)''-(K)'-(T)'-(T1)-(T2)-(K1)-(K2)_Design3] | 369 | 253 | 307 | 345 | 439
42 | AAGAGUAAACUCUAACUCCUUAAGUCCGAAGGAGCGACUCAAUGGUCAGGUAGGUCGCGGACAAUCCUAGUGAUGUUAGGAUCUG [Arg A SS t5] | 252 | 220 | 268 | 260 | 211
